Measured values published in the Human Domainome abundance scans (Beltran et al. 2025).
± gives the uncertainty stated by the source.

B1: Lysine-specific demethylase 5C, residues 319 to 373; numbered along this chain, P41229 (parent)
chain: AQFIESYVCRMCSRGDEDDKLLLCDGCDDNYHIFCLLPPLPEIPKGVWRCPKCVM

Variants of: B1
Assay: abundance fitness (aPCA) (normalised: wild type 0, dead -1); higher = more abundant; growth selection in yeast, the domain comes from the species named
Conditions: Homo sapiens

| Variant | abundance fitness |
| --- | --- |
| V8P | -0.12 ± 0.095 |
| V8S | 0.007 ± 0.1 |
| V8M | -0.052 ± 0.15 |
| V8W | -0.247 ± 0.16 |
| V8R | -0.075 ± 0.098 |
| V8I | -0.241 ± 0.14 |
| V8H | -0.11 ± 0.12 |
| V8D | -0.315 ± 0.19 |
| A1L | -0.331 ± 0.4 |
| A1M | 0.135 ± 0.47 |
| A1T | -0.704 ± 0.3 |
| L22D | -1.1 ± 0.37 |
| L22V | -0.163 ± 0.11 |
| L22G | -0.912 ± 0.16 |
| L22F | -0.551 ± 0.24 |
| L22R | -0.169 ± 0.078 |
| K20H | -0.103 ± 0.19 |
| K20R | -0.136 ± 0.15 |
| K20M | -0.596 ± 0.2 |
| K20T | 0.096 ± 0.13 |
| K20Y | -0.035 ± 0.22 |
| K20W | -0.317 ± 0.24 |
| K20Q | -0.093 ± 0.14 |
| K20N | -0.327 ± 0.23 |

| Variant | abundance fitness |
| --- | --- |
| D28S | 0.148 ± 0.14 |
| D28C | -0.359 ± 0.32 |
| D28K | -0.516 ± 0.41 |
| M11H | -0.281 ± 0.22 |
| M11Q | 0.045 ± 0.14 |
| M11G | -0.072 ± 0.11 |
| M11S | -0.138 ± 0.11 |
| M11D | -0.063 ± 0.23 |
| E17H | -0.245 ± 0.23 |
| E17Q | -0.064 ± 0.12 |
| E17S | -0.052 ± 0.1 |
| E17C | 0.261 ± 0.19 |
| E17N | 0.257 ± 0.22 |
| E17F | -0.062 ± 0.23 |
| E17K | -0.122 ± 0.16 |
| E17D | 0.078 ± 0.13 |
| E17A | 0.123 ± 0.11 |
| C53S | -0.835 ± 0.16 |
| C53Y | -1.01 ± 0.3 |
| C53W | -1.08 ± 0.27 |
| C9S | -0.82 ± 0.11 |
| C9W | -0.937 ± 0.28 |
| C9Y | -0.955 ± 0.22 |
| C9D | -0.847 ± 0.23 |

| Variant | abundance fitness |
| --- | --- |
| C9L | -0.978 ± 0.19 |
| C9T | -0.726 ± 0.15 |
| Y7Q | -0.052 ± 0.18 |
| Y7D | 0.173 ± 0.48 |
| Y7K | 0.155 ± 0.17 |
| Y7A | 0.18 ± 0.13 |
| Y7E | 0.193 ± 0.19 |
| Q2E | -0.258 ± 0.28 |
| Q2G | -0.446 ± 0.21 |
| Q2L | -0.119 ± 0.11 |
| Q2R | -0.271 ± 0.14 |
| Q2C | -0.446 ± 0.31 |
| Q2K | 0.247 ± 0.33 |
| Y31M | -0.074 ± 0.24 |
| Y31D | -0.776 ± 0.18 |
| Y31S | -0.93 ± 0.19 |
| Y31R | -0.641 ± 0.11 |
| Y31P | -0.776 ± 0.24 |
| Y31W | -0.364 ± 0.14 |
| Y31L | -0.589 ± 0.12 |
| Y31V | -0.113 ± 0.079 |
| Y31E | -0.538 ± 0.14 |
| Y31I | -0.261 ± 0.27 |
| Y31C | -0.514 ± 0.22 |

| Variant | abundance fitness |
| --- | --- |
| Y31K | -0.702 ± 0.14 |
| H32C | -0.677 ± 0.16 |
| H32P | -0.853 ± 0.23 |
| H32N | -0.672 ± 0.3 |
| H32Q | -0.756 ± 0.22 |
| H32S | -0.984 ± 0.17 |
| H32G | -1.01 ± 0.19 |
| H32T | -0.898 ± 0.21 |
| E42W | -0.333 ± 0.14 |
| E42Y | -0.125 ± 0.16 |
| E42D | 0.043 ± 0.24 |
| E42M | -0.37 ± 0.19 |
| E42I | 0.009 ± 0.27 |
| E42K | -0.506 ± 0.17 |
| E42F | -0.231 ± 0.17 |
| E42G | -0.157 ± 0.15 |
| R10A | -0.148 ± 0.12 |
| R10C | -0.108 ± 0.49 |
| R10L | 0.021 ± 0.21 |
| R10E | -0.1 ± 0.28 |
| R10S | -0.28 ± 0.24 |
| G15L | -0.113 ± 0.064 |
| G15I | -0.065 ± 0.1 |
| G15Q | -0.124 ± 0.086 |

| Variant | abundance fitness |
| --- | --- |
| G15C | 0.167 ± 0.12 |
| G15P | 0.04 ± 0.074 |
| G15T | 0.029 ± 0.076 |
| G15A | -0.037 ± 0.084 |
| G15R | 0.035 ± 0.075 |
| G15Y | -0.027 ± 0.11 |
| G15D | -0.058 ± 0.12 |
| G15F | -0.008 ± 0.1 |
| G15H | -0.391 ± 0.14 |
| G15W | -0.169 ± 0.12 |
| F3P | -0.141 ± 0.2 |
| F3Q | -0.201 ± 0.18 |
| F3G | 0.022 ± 0.14 |
| F3V | 0.042 ± 0.11 |
| F3L | 0.005 ± 0.1 |
| F3I | -0.17 ± 0.17 |
| F3R | 0.072 ± 0.12 |
| E5T | -0.078 ± 0.16 |
| E5G | -0.128 ± 0.13 |
| E5Q | 0.02 ± 0.17 |
| E5Y | -0.162 ± 0.18 |
| E5V | -0.481 ± 0.11 |
| E5S | -0.125 ± 0.1 |
| E5I | -0.283 ± 0.17 |

| Variant | abundance fitness |
| --- | --- |
| E5W | -0.451 ± 0.24 |
| P38N | 0.041 ± 0.2 |
| P38M | -0.388 ± 0.15 |
| P38A | -0.042 ± 0.12 |
| D16G | 0.085 ± 0.1 |
| D16C | -0.115 ± 0.15 |
| D16M | 0.086 ± 0.13 |
| D16W | -0.351 ± 0.18 |
| D16E | -0.072 ± 0.12 |
| D16T | -0.182 ± 0.12 |
| D16R | -0.026 ± 0.1 |
| D16S | 0.104 ± 0.093 |
| I33R | -0.381 ± 0.49 |
| R49H | -0.134 ± 0.19 |
| R49N | 0.268 ± 0.15 |
| R49K | 0.205 ± 0.17 |
| R49E | -0.178 ± 0.17 |
| R49C | -0.468 ± 0.22 |
| R49F | -0.358 ± 0.14 |
| R49V | -0.25 ± 0.15 |
| R49T | -0.055 ± 0.16 |
| R49M | -0.092 ± 0.19 |
| R49L | -0.164 ± 0.12 |
| R49D | -0.865 ± 0.34 |

| Variant | abundance fitness |
| --- | --- |
| R49S | -0.324 ± 0.13 |
| G26A | 0.161 ± 0.13 |
| G26C | 0.017 ± 0.25 |
| G26S | -0.159 ± 0.11 |
| G26N | -0.105 ± 0.2 |
| G26Y | -0.341 ± 0.22 |
| G26Q | -0.129 ± 0.17 |
| G26W | -0.375 ± 0.2 |
| G26F | -0.047 ± 0.16 |
| D18L | 0.052 ± 0.078 |
| D18H | 0.324 ± 0.18 |
| D18S | 0.028 ± 0.093 |
| D18C | -0.178 ± 0.18 |
| D18M | 0.107 ± 0.11 |
| D18R | 0.087 ± 0.083 |
| D18I | 0.125 ± 0.14 |
| D18K | 0.184 ± 0.097 |
| D18T | -0.065 ± 0.12 |
| D29V | -0.228 ± 0.19 |
| D29G | -0.077 ± 0.21 |
| D29Y | 0.036 ± 0.26 |
| D29M | -0.237 ± 0.44 |
| D29N | 0.274 ± 0.24 |
